Experiments:
[1] = molecular target: T1, rHuman IGF-1 sR (insulin-like growth factor-1 soluble receptor), CF (R&D Systems Cat#391-GR) (human, UniProt P08069 31-932); assay: MSD ECL titration, Fab 2383 nM, blank 344;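 note: blank spot per well as comparator with Hit at signal to blank ratio of 4 or more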
T1 construct: Bought soluble receptor; also called IGF-R1

[2] = molecular target: T2, rHuman P-Cadherin/Fc Chimera, CF (R&D Systems Cat#861-PC) (human, UniProt P22223 108-654); assay: MSD ECL titration, Fab 2383 nM, blank 344;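 note: blank spot per well as comparator with Hit at signal to blank ratio of 4 or more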
T2 construct: Bought Fc chimera; Fc part of the bought chimera not given

[3] = molecular target: T3, rHuman ErbB2/Fc Chimera, CF (R&D Systems Cat#1129-ER) (human, UniProt P04626 23-652); assay: MSD ECL titration, Fab 2383 nM, blank 344;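 note: blank spot per well as comparator with Hit at signal to blank ratio of 4 or more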
T3 construct: Bought Fc chimera; also called HER2/neu; Fc part of the bought chimera not given

[4] = molecular target: T4, rHuman P-Cadherin/Fc Chimera, CF (R&D Systems Cat#861-PC) (human, UniProt P22223 108-654); assay: ECL (MSD multi-spot), antigen on plate, Fab 2 nM;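 note: blank spot per well as comparator with Hit at signal to blank ratio of 4 or more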
T4 construct: Bought Fc chimera; also called CDH3; not shown: Fc of the bought chimera

[5] = molecular target: T5, rHuman Erythropoietin R/Fc Chimera, CF (R&D Systems Cat#963-ER) (human, UniProt P19235 25-250); assay: ECL (MSD multi-spot), antigen on plate, Fab 2 nM;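 note: blank spot per well as comparator with Hit at signal to blank ratio of 4 or more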
T5 construct: Bought Fc chimera; also called EPO R/Fc; Epo R; not shown: Fc of the bought chimera
T5 sequence: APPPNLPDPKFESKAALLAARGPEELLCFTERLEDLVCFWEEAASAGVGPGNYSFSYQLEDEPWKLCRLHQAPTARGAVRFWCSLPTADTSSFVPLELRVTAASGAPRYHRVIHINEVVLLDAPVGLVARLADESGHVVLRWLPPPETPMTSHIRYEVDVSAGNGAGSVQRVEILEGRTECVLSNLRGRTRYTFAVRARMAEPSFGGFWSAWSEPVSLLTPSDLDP

[6] = molecular target: T6, rHuman IGF-1 sR (IGF-1 sR), CF (R&D Systems Cat#391-GR) (human, UniProt P08069 31-932); assay: MSD ECL multi-spot plate, antigen immobilized; Fab 200 nM; blank spot 529
T6 construct: Purchased soluble receptor; also called insulin-like growth factor-1 soluble receptor; IGF-R1

[7] = molecular target: T7, rHuman P-Cadherin/Fc Chimera, CF (R&D Systems Cat#861-PC) (human, UniProt P22223 108-654); assay: as above
T7 construct: Purchased Fc chimera; not shown: Fc portion of the purchased chimera

[8] = molecular target: T8, rHuman Erythropoietin R/Fc Chimera, CF (R&D Systems Cat#963-ER) (human, UniProt P19235 25-250); assay: as above
T8 construct: Purchased Fc chimera; also called EPO R/Fc; Epo R; not shown: Fc portion of the purchased chimera
T8 sequence: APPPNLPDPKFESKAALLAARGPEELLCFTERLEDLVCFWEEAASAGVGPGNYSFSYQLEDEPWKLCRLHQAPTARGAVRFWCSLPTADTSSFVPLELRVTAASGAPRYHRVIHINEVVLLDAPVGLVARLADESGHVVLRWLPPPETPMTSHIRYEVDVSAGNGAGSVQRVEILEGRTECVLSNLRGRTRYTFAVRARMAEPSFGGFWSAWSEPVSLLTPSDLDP

[9] = molecular target: T9, Recombinant Human DLL4 (R&D Systems Cat#1506-D4/CF) (human, UniProt Q9NR61 27-524); assay: as above
T9 construct: Purchased recombinant protein; also called delta-like protein 4

[10] = molecular target: T10, rHuman ErbB2/Fc Chimera, CF (R&D Systems Cat#1129-ER) (human, UniProt P04626 23-652); assay: as above
T10 construct: Purchased Fc chimera; also called HER2/neu; not shown: Fc portion of the purchased chimera

[11] = molecular target: T11, rHuman EGF R/Fc Chimera, CF (R&D Systems Cat#344-ER) (human, UniProt P00533 25-645); assay: as above
T11 construct: Purchased Fc chimera; not shown: Fc portion of the purchased chimera

[12] = molecular target: T12, rHuman HGF R/c-MET/Fc Chimera, CF (R&D Systems Cat#358-MT/CF) (human, UniProt P08581 25-932); assay: as above
T12 construct: Purchased Fc chimera; also called HGF R/Fc; not shown: Fc portion of the purchased chimera

[13] = molecular target: T13, rHuman Notch-1/Fc Chimera, CF (R&D Systems Cat#3647-TK) (human, UniProt P46531 19-526); assay: as above
T13 construct: Purchased Fc chimera; not shown: Fc portion of the purchased chimera

[14] = molecular target: T14, rHuman CD44/Fc Chimera, CF (R&D Systems Cat#3660-CD) (human, UniProt P16070 21-220); assay: as above
T14 construct: Purchased Fc chimera; not shown: Fc portion of the purchased chimera

[15] = molecular target: T15, rHuman Erythropoietin R/Fc Chimera, CF (R&D Systems Cat#963-ER) (human, UniProt P19235 25-250); assay: ECL (MSD Multi-Spot) binding assay, antigen spotted on plate; Fab 480 nM; blank spot 362;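 note: blank spot per well as comparator with Hit at signal to blank ratio of 4 or more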
T15 construct: Bought Fc chimera; also called EPO R/Fc; Epo R; Fc part of the bought chimera not given
T15 sequence: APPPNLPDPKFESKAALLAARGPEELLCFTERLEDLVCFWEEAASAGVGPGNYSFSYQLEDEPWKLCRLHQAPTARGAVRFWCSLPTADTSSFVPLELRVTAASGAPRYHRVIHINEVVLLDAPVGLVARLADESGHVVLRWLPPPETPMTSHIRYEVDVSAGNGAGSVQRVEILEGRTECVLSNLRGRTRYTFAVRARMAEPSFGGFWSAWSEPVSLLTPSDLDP

[16] = molecular target: T16, Recombinant Human DLL4 (R&D Systems Cat#1506-D4/CF) (human, UniProt Q9NR61 27-524); assay: as above
T16 construct: Bought recombinant protein; also called delta-like protein 4; rHuman DLL4

[17] = molecular target: T17, rHuman Notch-1/Fc Chimera, CF (R&D Systems Cat#3647-TK) (human, UniProt P46531 19-526); assay: as above
T17 construct: Bought Fc chimera; Fc part of the bought chimera not given

[18] = molecular target: T18, rHuman CD44/Fc Chimera, CF (R&D Systems Cat#3660-CD) (human, UniProt P16070 21-220); assay: as above
T18 construct: Bought Fc chimera; Fc part of the bought chimera not given

[19] = molecular target: T19, rHuman P-Cadherin/Fc Chimera, CF (R&D Systems Cat#861-PC) (human, UniProt P22223 108-654); assay: as above
T19 construct: Bought Fc chimera; also called CDH3; Fc part of the bought chimera not given

B1: Fab VH1-46_IGHD6-6*01_IGHJ1*01 & L6_IGKJ1*01 (Fab, V domains shown)
VH: QVQLVQSGAEVKKPGASVKVSCKASGYTFTSYYMHWVRQAPGQGLEWMGIINPSGGSTSYAQKFQGRVTMTRDTSTSTVYMELSSLRSEDTAVYYCAREEYSSSSAEYFQHWGQGTLVTVSS
VL: not shown
notes: Expressed in E. coli as Fab: heavy chain with CH1 plus Flag and His tags from Plasmid A, kappa light chain constant region from Plasmid C; also called Fab No. 1
For B1, the ECL signal [1] was 527, the ECL signal [2] was 728 and the ECL signal [3] was 454.

B2: Fab VH1-46_IGHD6-6*01_IGHJ1*01_S102A_S103P_S104F & L6_IGKJ1*01_S31K (Fab, V domains shown)
VH: QVQLVQSGAEVKKPGASVKVSCKASGYTFTSYYMHWVRQAPGQGLEWMGIINPSGGSTSYAQKFQGRVTMTRDTSTSTVYMELSSLRSEDTAVYYCAREEYAPFSAEYFQHWGQGTLVTVSS
VL: EIVLTQSPATLSLSPGERATLSCRASQSVSKYLAWYQQKPGQAPRLLIYDASNRATGIPARFSGSGSGTDFTLTISSLEPEDFAVYYCQQRSNWPPWTFGQGTKVEIKR
notes: Fab
B2 gave an ECL signal [4] of 351 ECL signal and an ECL signal [5] of 326 ECL signal.

B3: Fab VH5-51_IGHD5-18*01>3_IGHJ4*01_G100R & V3-4_IGLJ1*01 (Fab, V domains shown)
VH: EVQLVQSGAEVKKPGESLKISCKGSGYSFTSYWIGWVRQMPGKGLEWMGIIYPGDSDTRYSPSFQGQVTISADKSISTAYLQWSSLKASDTAMYYCARRRYSYGYDYFDYWGQGTLVTVSS
VL: QTVVTQEPSFSVSPGGTVTLTCGLSSGSVSTSYYPSWYQQTPGQAPRTLIYSTNTRSSGVPDRFSGSILGNKAALTITGAQADDESDYYCVLYMGSGISYVFGTGTKVTVL
notes: It was expressed as a Fab: CH1 with tags from Plasmid A and lambda CL from Plasmid E; also called Fab No. 23
For B3, the ECL signal [6] was 1110 ECL signal, the ECL signal [7] was 815 ECL signal and the ECL signal [8] was 1180 ECL signal. For the same binder, the ECL signal [9] was 29800 ECL signal, the ECL signal [10] was 1450 ECL signal and the ECL signal [11] was 1020 ECL signal. It also gave an ECL signal [12] of 1160 ECL signal, an ECL signal [13] of 1330 ECL signal and an ECL signal [14] of 895 ECL signal.

B4: Fab VH6-1_IGHD3-3*01_IGHJ4*01 & V4-3_IGLJ4*01 (Fab, V domains shown)
VH: QVQLQQSGPGLVKPSQTLSLTCAISGDSVSSNSAAWNWIRQSPSRGLEWLGRTYYRSKWYNDYAVSVKSRITINPDTSKNQFSLQLNSVTPEDTAVYYCAREYYDFWSGYYTDYFDYWGQGTLVTVSS
VL: QPVLTQPTSLSASPGASARLTCTLRSGINLGSYRIFWYQQKPESPPRYLLSYYSDSSKHQGSGVPSRFSGSKDASSNAGILVISGLQSEDEADYYCMIWHSSASFVFGGGTQLIIL
notes: Tested as a Fab made in E. coli; also called IGHV6-1*01
B4 gave an ECL signal [15] of 621, an ECL signal [16] of 1530 and an ECL signal [17] of 545. The ECL signal [18] was 541 and the ECL signal [19] was 596.

From patent US20120058906A1 (published 2012)
